Test results: patent US20210253725A1 (BIONTECH, published 2021)
Substitutions are numbered along the chain they refer to. Numbers in names are those of the source.

B1: P018.S.11.A.E06 (antibody, V domains shown)
VH: QSVEESGGRLVTPGTPLTLTCTASGFSLSSYYMSWVRQAPGKGLEWIGIIDTGSGDTWYATWAKGRFTISKTSTTVDLKMTSLTTEDTATYFCARVNPEFAHVWPYYFDLWGQGTLVTVSS
VL: ALVMTQTPASVEVAVGGTVTIKCQASQSISSNFLSWYQQNPGQPPKLLIDRASTLESGVPSRFKGSGSGTEFTLTISDLESADAATYYCQQGDSLSNVENAFGGGTELVVK
notes: V regions on human Ig constant parts; also called AB134_37
B2: P018.S.13.A.G06 (antibody, V domains shown)
VH: QSLEESGGGLVKPGASLTLTCKASGFDLSSYYYMCWVRQAPGKGLEWIGCFYTDDSANTWYATWAKGRFTISKTSSTTVTLQMTSLTAADTATYFCARDASGWYWFNLWGPGTLVTVSS
VL: AQVLTQTPSPVSAAVGGTVTISCQSSQSLHDDNALAWYQQKPGQPPKLLIYLASYLASGVPSRFKGSGSGTQFTLTISEVQSDDAATYYCQGAYSGDNNSFGGGTEVVVK
notes: V regions on human Ig constant parts; also called AB134_92
B3: P018.S.11.A.H04 (antibody, V domains shown)
VH: QEQLEESGGDLVKPGASLTLTCTASGLSFSGSYWICWVRQAPGKGLEWIGCITAGISGSTYYASWAKGRFTISKTSSTTVTLQMTSLTAADTATYFCARERTGGWGDFNLWGPGTLVTVSS
VL: DVVMTQTPASVEAAVGGTVTIKCQASQSITTYLSWYQQKPGQPPKLLIYLASTLESGVPSRFKGSRSGTEYTLTISDLESADAATYYCQCTDGGINHWFWAFGGGTEVVVK
notes: V regions on human Ig constant parts; also called AB134_47
B4: P018.S.12.A.A04 (antibody, V domains shown)
VH: QSVEESGGRLVTPGTPLTLTCTVSGIDLSSYAMSWVRQAPGKGLEYIGIISGSGNTYYASWAKGRFTISKTSTTVDLKISSPTTEDTATYFCCRGDPSYSIDGFDPWGPGTLVTVSS
VL: AAVLTQTPSPVSAAVGGTVTINCQSSQSVYNNNDLAWYQQKPGQPPKLLIYRASNLASGVPSRFSGSGSGTQFTLTISGVQSGDAATYYCLGAWDDDADTWAFGGGTEVVVE
notes: V regions on human Ig constant parts; also called AB134_53
B5: P018.S.04.A.E01 (antibody, V domains shown)
VH: QSVEESGGRLVTPGTPLTLTCTASGFSLSSSWMSWVRQAPGKGLEFIGFINTGGRAFYATWASGRFTISRTSTKVDLEITSPTSEDTATYFCVRGAAGYPEYDDGDLWGQGTLVTVSS
VL: AQVLTQTLSPVSAAVGGTVTINCQSSPSVYHNNWLSWFQKKPGQPPKLLIYEASKLASGVPPRFSGSGSGTQFTLTISGVQSDDAATYYCAGSFSDNIYTFGGGTAMVVK
notes: V regions on human Ig constant parts; also called AB134_10
B6: P018.S.12.A.E02 (antibody, V domains shown)
VH: QSVEESGGRLVTPGTPLTLTCTASGFTLSSYYMGWVRQAPGKGLEWIGIIYPSGSAYYATWTKGRFTISRTSTTVDLKVTGPTTEDTATYFCARSTTSSLYYGYNLWGQGTLVTVSS
VL: DIVMTQTPASVEAAVGGTVTIKCQASASITNWLAWYQQKPGQPPKLLIYKASTLESGVPSRFKGSGSGTEFTLTISDLESADAASYYCQSNYGGGSDTSHTFGGGTGVVVK
notes: V regions on human Ig constant parts; also called AB134_73
B7: P018.S.11.A.E05 (antibody, V domains shown)
VH: QSLEESGGRLVTPGTPLTLNCTASGFSLSAYWMGWVRQAPGKGLEWIGIIYATGSTYYTTWAKGRFTISRTSTTVDLKMTSPTTEDTATYFCGRGDGYESLNLWGPGTLVTVSS
VL: AQVLTQTPSSVSAAVGGTVTINCQSSQSVYSNNLLSWYQQKPGQPPKRLIYGASTLDSGVSSRFKGSGSGTQFTLTISGMQSDDAATYYCLGYYSGGIYVFGGGTEVVVK
notes: V regions on human Ig constant parts; also called AB134_36
B8: P018.S.12.A.C05 (antibody, V domains shown)
VH: QSLEESGGRLVTPGTPLTLTCTASGFSLSNYYMNWVRQAPGKGLEWIGIIDKSGSAYYASWARGRFTISKTSTTVGLKIPSPTTEDTATYFCARGYGGYADHGLGLWGQGTLVTVSS
VL: DVVMTQTPASVSEPVGGTVTIKCQASQSIAGWLAWYQQKPGQPPKLLIYQASKLASGVPSRFSGSGSGTEYTLTISDLESDDAATYYCQCTYGSGSGSNGFGGGTEVVVK
notes: V regions on human Ig constant parts; also called AB134_65
B9: P018.S.12.A.A05 (antibody, V domains shown)
VH: B8 VH with M33I
VL: B8 VL with G95A
notes: V regions on human Ig constant parts; also called AB134_54
B10: P018.S.12.A.A02 (antibody, V domains shown)
VH: QSLEESGGRLVTPGTPLTLTCTASGFSLSTYYMTWVRQAPGKGLEWIGDIYVRGGARYANWAKGRFTISRTSTTVDLRITSPTTEDTATYFCAREGLSLWGQGTLVTVSS
VL: AQVLTQTASPVSAAVGGTVTINCQSSQSVYKNNRLAWYQQKPGQPPKLLIYETSKLESGVSSRFKGSGSGTQFTLTISGVQSDDAATYYCLGGYDCGSADCNAFGGGTEVVVK
notes: V regions on human Ig constant parts; also called AB134_51
B11: P018.S.12.A.H03 (antibody, V domains shown)
VH: QSLEESRGGLVQPEGSLTLTCKASGFSFSSGYYMCWVRQAPGKGLEWIGCIYSGSDSACYASWAKGRFTISKTSSTTVTLQMTSLTVADTATYFCVRDLGDYNALSYTINLWGPGTLVTVSS
VL: DVVMTQTPSSVSAAVGGTVTIKCQASQSISTNLAWYQEKAGQPPKLLIYRASTVASGVPSRFKGSGSGTQFTLTISDLESADATTYFCQCIDYDDYGGTFGGGTEVVVK
notes: V regions on human Ig constant parts; also called AB134_89
B12: P018.S.11.A.B04 (antibody, V domains shown)
VH: QEQLEESGGDLVKPEGSLTLTCTASGFSFSSAYYMCWVRQAPGKGLEWIACIDAGSSGSTYYASWAKGRFTISKTSSTTVTLQMTSLTAADTATYFCARDGGSTTGYGWLDLWGQGTLVTVSS
VL: AVVMTQTASPVSAAVGGTVTINCQASQSIGTNYLSWYQQKPGQPPKLLIYEASNLETGVPSRFKGSGSGTEYSLTISDLESADAATYYCLYSYYSSSSAYTFGGGTEVVVK
notes: V regions on human Ig constant parts; also called AB134_25
B13: P018.S.11.A.F02 (antibody, V domains shown)
VH: QSVEESGGRLVTPGTPLTLTCTASGFSLSNYNMGWVRQAPGEGLEWIGHISTDGSAYYASWAKGRFTISKTSTTVDLKITSPTTEDTGTYFCARLYYRHGYALNLWGQGTLVTVSS
VL: DIVMTQTPASVSEPVGGTVTIKCQASQSVGSYLAWYQQKSGQPPKLLIYSASTLASGVPSRFKGSGSGTEFTLTISDLVSADAATYYCHCTYGSNITANWGTFGGGTGVVVK
notes: V regions on human Ig constant parts; also called AB134_38

biological target: T1, CD134 expressed on the cell surface of HT1080_OX40 cells (human, UniProt P43489 29-277); experiment: cell-based or functional assay
T1 sequence (looked up): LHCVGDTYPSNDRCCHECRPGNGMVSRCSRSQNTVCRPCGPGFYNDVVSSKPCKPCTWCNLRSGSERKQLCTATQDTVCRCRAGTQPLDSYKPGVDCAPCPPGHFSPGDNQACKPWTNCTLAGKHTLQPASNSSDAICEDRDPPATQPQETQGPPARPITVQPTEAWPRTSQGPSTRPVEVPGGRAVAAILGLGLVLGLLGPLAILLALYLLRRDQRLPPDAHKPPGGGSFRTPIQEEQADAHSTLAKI
Also: test concentration or dose not given here.

Binder	Functional assay Cross-linked by F(ab′)2 fragment IL-8	Functional assay IL-8
B1	1.72 abs. corr.	0.278 abs. corr.
B2	1.58 abs. corr.	-0.114 abs. corr.
B3	1.61 abs. corr.	0.61 abs. corr.
B4	1.4 abs. corr.	-0.007 abs. corr.
B5	1.41 abs. corr.	0.084 abs. corr.
B6	1.63 abs. corr.	0.355 abs. corr.
B7	1.42 abs. corr.	-0.265 abs. corr.
B8	1.65 abs. corr.	0.228 abs. corr.
B9	1.53 abs. corr.	0.267 abs. corr.
B10	1.57 abs. corr.	0.145 abs. corr.
B11	1.27 abs. corr.	-0.074 abs. corr.
B12	1.66 abs. corr.	-0.087 abs. corr.
B13	1.38 abs. corr.	-0.011 abs. corr.

biological target: T1, CD134 expressed on the cell surface of …; experiment: HT1080_OX40 cells, imaging

Binder	Cellular binding assay [RFU]
B1	554 RFU
B2	0 RFU
B3	382 RFU
B4	514 RFU
B5	22 RFU
B6	497 RFU
B7	407 RFU
B8	494 RFU
B9	503 RFU
B10	502 RFU
B11	496 RFU
B12	444 RFU
B13	503 RFU

biological target: T2, CD134 protein (His-tagged, Sino Biological Inc. 10481-H08H) (human, UniProt P43489 29-216); experiment: ELISA, coated His-tagged CD134
T2 construct: bought protein coated on ELISA plates; also called OX40; TNFRSF4; not shown: His tag
T2 sequence (looked up): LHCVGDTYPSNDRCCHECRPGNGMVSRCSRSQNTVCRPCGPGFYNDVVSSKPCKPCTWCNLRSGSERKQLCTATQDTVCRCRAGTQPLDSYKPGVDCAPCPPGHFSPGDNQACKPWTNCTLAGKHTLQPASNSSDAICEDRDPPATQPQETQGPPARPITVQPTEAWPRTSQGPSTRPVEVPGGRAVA

Binder	ELISA [abs. corr.]
B1	2.05 abs. corr.
B2	0.002 abs. corr.
B3	2.65 abs. corr.
B4	1.99 abs. corr.
B5	2.88 abs. corr.
B6	2.59 abs. corr.
B7	1.66 abs. corr.
B8	2.94 abs. corr.
B9	2.86 abs. corr.
B10	1.58 abs. corr.
B11	2.48 abs. corr.
B12	1.43 abs. corr.
B13	2.43 abs. corr.
